The numbers were not newly measured in patent US20150182632A1, “ANTI-INTERLEUKIN-1 (IL-1) ANTIBODY USED AS A TARGETING AGENT TO TREAT ARTHRITIS AND OTHER DISEASES” (priority 2012, published 2015), which cites them from elsewhere.

The data set concerns the target T1, IL-1 (Homo sapiens, UniProt P01584).
T1 construct: Patients with arthritis and other inflammatory diseases produce IL-1 which is present in the blood; host or cells: endogenous IL-1 of RA patients (in vivo)
Conditions: several intravenous injections.

On to ACZ885: anti-IL-1 monoclonal antibody, for which the “clinical response of RA patients” value was “clinical improvement”.
